From article PMC8797792
Square brackets hold non-standard residues; d marks the D form. Ends that are not written are not given here. pT = C[C@@H](OP(=O)(O)O)[C@H](N)C(=O)O; pS = N[C@@H](COP(=O)(O)O)C(=O)O

Molecular target: GST-Fbw7 (residues 263 to 707)-Skp1 complex, Q969H0
Assay: AlphaScreen or HTRF

- IC50: 9.8 nM
Binder: EDIWKKFELLP[pT]PPL[pS]PSRR [Myc T58 degron peptide, diphosphorylated (pT58/pS62)]
